# Several values for one entry are separate records, joined by “and”; a condition that tells them apart may be missing. Equal entries are not always repeated.
# Biological target: melanin-concentrating hormone receptor 1 (MCHR1) from I3.4.2 cells (human) (UniProt Q99705)
# Assay: cell-based or functional assay
# Chain of melanin-concentrating hormone receptor 1 (MCHR1) from I3.4.2 cells (human) (Q99705 whole entry): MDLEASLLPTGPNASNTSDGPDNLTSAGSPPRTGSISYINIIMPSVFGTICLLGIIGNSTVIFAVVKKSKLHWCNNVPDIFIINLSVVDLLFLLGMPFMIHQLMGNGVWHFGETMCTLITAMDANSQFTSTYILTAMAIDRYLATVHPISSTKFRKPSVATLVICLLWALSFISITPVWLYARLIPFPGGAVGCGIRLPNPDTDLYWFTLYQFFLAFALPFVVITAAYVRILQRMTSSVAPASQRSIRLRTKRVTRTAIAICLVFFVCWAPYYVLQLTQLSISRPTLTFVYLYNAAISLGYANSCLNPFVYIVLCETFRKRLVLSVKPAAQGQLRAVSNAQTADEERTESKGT
substance,measurement,value
melanin-concentrating hormone (MCH) (from UniProt P20382 147-165) (peptide),"Ca++ response to 1 uM MCH, relative fluorescence units (FLIPR), baseline approximately 700 RFU",5000 RFU and 6000 RFU
same,EC50 for MCH-mediated Ca++-mobilization (fluorometric imaging plate reader) on I3.4.2 cells,90 nM
same,"EC50 for receptor activation, Ca++-mobilization assay (FLIPR) on T42402I3.4.2 cells",80 nM

# — patent publication US20040259194A1
